Source: patent publication US20140087995A1 (published 2014)
Numbered stars: 1 amine (or outer) side, 2 acyl side, 3 side chain; on linkers, the order of the positions; unused ones are H or OH. Bridge positions count the residues as written; N and C are the ends. Side chains are listed from the residue outwards. Ends that are not written are not given here. * marks the point of attachment. C20 diacid = O=C(O)CCCCCCCCCCCCCCCCCCC(=O)*; γGlu = O=C(O)[C@H](CCC(=O)[*:2])N[*:1]; AEEA = NCCOCCOCC(=O)O

T1: human amylin receptor (amylin 3(a) receptor: human calcitonin receptor plus RAMP-3) (human, UniProt P30988 25-474; O60896 24-148, limits assumed)
T1 sequence (looked up) 1: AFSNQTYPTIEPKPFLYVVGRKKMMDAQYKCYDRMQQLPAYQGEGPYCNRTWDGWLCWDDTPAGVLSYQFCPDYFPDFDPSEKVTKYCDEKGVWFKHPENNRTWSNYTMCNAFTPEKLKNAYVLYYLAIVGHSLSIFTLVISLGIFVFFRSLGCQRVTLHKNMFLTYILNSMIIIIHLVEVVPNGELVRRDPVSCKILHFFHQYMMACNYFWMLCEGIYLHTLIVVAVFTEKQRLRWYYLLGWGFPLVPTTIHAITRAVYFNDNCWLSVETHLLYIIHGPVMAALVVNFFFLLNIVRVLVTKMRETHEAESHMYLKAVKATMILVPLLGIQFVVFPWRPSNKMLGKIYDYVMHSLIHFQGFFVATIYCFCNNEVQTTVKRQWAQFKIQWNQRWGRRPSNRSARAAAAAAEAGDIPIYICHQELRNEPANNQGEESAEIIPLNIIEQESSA
T1 sequence (looked up) 2: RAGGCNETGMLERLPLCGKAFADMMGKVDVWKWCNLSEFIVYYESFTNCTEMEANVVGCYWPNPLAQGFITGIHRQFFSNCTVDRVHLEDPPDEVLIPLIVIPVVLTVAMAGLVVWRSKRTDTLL

T2: human calcitonin receptor (human, UniProt P30988 25-474)
T2 sequence (looked up): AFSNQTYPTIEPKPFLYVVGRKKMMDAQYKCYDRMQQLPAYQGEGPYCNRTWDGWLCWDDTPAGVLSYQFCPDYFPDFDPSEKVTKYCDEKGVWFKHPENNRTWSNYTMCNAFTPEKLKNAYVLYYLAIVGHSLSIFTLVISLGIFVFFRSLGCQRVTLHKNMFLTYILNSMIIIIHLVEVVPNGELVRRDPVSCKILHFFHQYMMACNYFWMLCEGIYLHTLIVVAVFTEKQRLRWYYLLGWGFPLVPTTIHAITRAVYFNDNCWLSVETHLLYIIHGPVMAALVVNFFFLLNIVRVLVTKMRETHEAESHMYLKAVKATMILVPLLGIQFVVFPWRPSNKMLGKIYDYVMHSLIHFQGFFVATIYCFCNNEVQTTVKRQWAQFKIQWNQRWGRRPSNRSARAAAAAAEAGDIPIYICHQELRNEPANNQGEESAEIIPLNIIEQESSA


How the values were obtained:
[1] = target: T1, human amylin receptor (amylin 3(a) …); assay: cell-based or functional assay
[2] = target: T2, human calcitonin receptor; assay: cell-based or functional assay

| Binder | Ratio hCT/hAmylin funct. [1] | hAmylin-R funct. EC50 [1] | hCTR funct. EC50 [2] |
| --- | --- | --- | --- |
| K([AEEA-γGlu-C20 diacid])CNTATCATQRLANFLRHSSPNFGAIPSSTPVGSNTY-NH2 (disulfide 2-7; N-terminus assumed; SMILES CC[C@H](C)[C@H](NC(=O)[C@H](C)NC(=O)CNC(=O)[C@H](Cc1ccccc1)NC(=O)[C@H](CC(N)=O)NC(=O)[C@@H]1CCCN1C(=O)[C@H](CO)NC(=O)[C@H](CO)NC(=O)[C@H](Cc1c[nH]cn1)NC(=O)[C@H](CCCNC(=N)N)NC(=O)[C@H](CC(C)C)NC(=O)[C@H](Cc1ccccc1)NC(=O)[C@H](CC(N)=O)NC(=O)[C@H](C)NC(=O)[C@H](CC(C)C)NC(=O)[C@H](CCCNC(=N)N)NC(=O)[C@H](CCC(N)=O)NC(=O)[C@@H](NC(=O)[C@H](C)NC(=O)[C@@H]1CSSC[C@H](NC(=O)[C@@H](N)CCCCNC(=O)COCCOCCNC(=O)CC[C@H](NC(=O)CCCCCCCCCCCCCCCCCCC(=O)O)C(=O)O)C(=O)N[C@@H](CC(N)=O)C(=O)N[C@@H]([C@@H](C)O)C(=O)N[C@@H](C)C(=O)N[C@@H]([C@@H](C)O)C(=O)N1)[C@@H](C)O)C(=O)N1CCC[C@H]1C(=O)N[C@@H](CO)C(=O)N[C@@H](CO)C(=O)N[C@H](C(=O)N1CCC[C@H]1C(=O)N[C@H](C(=O)NCC(=O)N[C@@H](CO)C(=O)N[C@@H](CC(N)=O)C(=O)N[C@H](C(=O)N[C@@H](Cc1ccc(O)cc1)C(N)=O)[C@@H](C)O)C(C)C)[C@@H](C)O, Synthetic acylated analogue of human amylin; also called compound 49) | 22.5 ratio | 106 pM | 2390 pM |
| K([AEEA-γGlu-C20 diacid])CNTATCATQRLANFLRHSSPNFGAIPSSTNVGPNTY-NH2 (disulfide 2-7; N-terminus assumed; SMILES CC[C@H](C)[C@H](NC(=O)[C@H](C)NC(=O)CNC(=O)[C@H](Cc1ccccc1)NC(=O)[C@H](CC(N)=O)NC(=O)[C@@H]1CCCN1C(=O)[C@H](CO)NC(=O)[C@H](CO)NC(=O)[C@H](Cc1c[nH]cn1)NC(=O)[C@H](CCCNC(=N)N)NC(=O)[C@H](CC(C)C)NC(=O)[C@H](Cc1ccccc1)NC(=O)[C@H](CC(N)=O)NC(=O)[C@H](C)NC(=O)[C@H](CC(C)C)NC(=O)[C@H](CCCNC(=N)N)NC(=O)[C@H](CCC(N)=O)NC(=O)[C@@H](NC(=O)[C@H](C)NC(=O)[C@@H]1CSSC[C@H](NC(=O)[C@@H](N)CCCCNC(=O)COCCOCCNC(=O)CC[C@H](NC(=O)CCCCCCCCCCCCCCCCCCC(=O)O)C(=O)O)C(=O)N[C@@H](CC(N)=O)C(=O)N[C@@H]([C@@H](C)O)C(=O)N[C@@H](C)C(=O)N[C@@H]([C@@H](C)O)C(=O)N1)[C@@H](C)O)C(=O)N1CCC[C@H]1C(=O)N[C@@H](CO)C(=O)N[C@@H](CO)C(=O)N[C@H](C(=O)N[C@@H](CC(N)=O)C(=O)N[C@H](C(=O)NCC(=O)N1CCC[C@H]1C(=O)N[C@@H](CC(N)=O)C(=O)N[C@H](C(=O)N[C@@H](Cc1ccc(O)cc1)C(N)=O)[C@@H](C)O)C(C)C)[C@@H](C)O, Synthetic acylated analogue of human amylin; also called compound 50) | 17.4 ratio | 38 pM | 662 pM |
| K([γGlu-C20 diacid])CNTATCATQRLAEFLRHSSPNFGAIPSSTNVGSRTY-NH2 (disulfide 2-7; N-terminus assumed; SMILES CC[C@H](C)[C@H](NC(=O)[C@H](C)NC(=O)CNC(=O)[C@H](Cc1ccccc1)NC(=O)[C@H](CC(N)=O)NC(=O)[C@@H]1CCCN1C(=O)[C@H](CO)NC(=O)[C@H](CO)NC(=O)[C@H](Cc1c[nH]cn1)NC(=O)[C@H](CCCNC(=N)N)NC(=O)[C@H](CC(C)C)NC(=O)[C@H](Cc1ccccc1)NC(=O)[C@H](CCC(=O)O)NC(=O)[C@H](C)NC(=O)[C@H](CC(C)C)NC(=O)[C@H](CCCNC(=N)N)NC(=O)[C@H](CCC(N)=O)NC(=O)[C@@H](NC(=O)[C@H](C)NC(=O)[C@@H]1CSSC[C@H](NC(=O)[C@@H](N)CCCCNC(=O)CC[C@H](NC(=O)CCCCCCCCCCCCCCCCCCC(=O)O)C(=O)O)C(=O)N[C@@H](CC(N)=O)C(=O)N[C@@H]([C@@H](C)O)C(=O)N[C@@H](C)C(=O)N[C@@H]([C@@H](C)O)C(=O)N1)[C@@H](C)O)C(=O)N1CCC[C@H]1C(=O)N[C@@H](CO)C(=O)N[C@@H](CO)C(=O)N[C@H](C(=O)N[C@@H](CC(N)=O)C(=O)N[C@H](C(=O)NCC(=O)N[C@@H](CO)C(=O)N[C@@H](CCCNC(=N)N)C(=O)N[C@H](C(=O)N[C@@H](Cc1ccc(O)cc1)C(N)=O)[C@@H](C)O)C(C)C)[C@@H](C)O, Synthetic acylated analogue of human amylin; also called compound 51) | 14 ratio | 372 pM | 5220 pM |
| K([γGlu-γGlu-C20 diacid])CNTATCATQRLADFLRHSSPNFGAPLSSTNVGSDTY-NH2 (disulfide 2-7; N-terminus assumed; SMILES CC(C)C[C@H](NC(=O)[C@H](CCCNC(=N)N)NC(=O)[C@H](CCC(N)=O)NC(=O)[C@@H](NC(=O)[C@H](C)NC(=O)[C@@H]1CSSC[C@H](NC(=O)[C@@H](N)CCCCNC(=O)CC[C@H](NC(=O)CC[C@H](NC(=O)CCCCCCCCCCCCCCCCCCC(=O)O)C(=O)O)C(=O)O)C(=O)N[C@@H](CC(N)=O)C(=O)N[C@@H]([C@@H](C)O)C(=O)N[C@@H](C)C(=O)N[C@@H]([C@@H](C)O)C(=O)N1)[C@@H](C)O)C(=O)N[C@@H](C)C(=O)N[C@@H](CC(=O)O)C(=O)N[C@@H](Cc1ccccc1)C(=O)N[C@@H](CC(C)C)C(=O)N[C@@H](CCCNC(=N)N)C(=O)N[C@@H](Cc1c[nH]cn1)C(=O)N[C@@H](CO)C(=O)N[C@@H](CO)C(=O)N1CCC[C@H]1C(=O)N[C@@H](CC(N)=O)C(=O)N[C@@H](Cc1ccccc1)C(=O)NCC(=O)N[C@@H](C)C(=O)N1CCC[C@H]1C(=O)N[C@@H](CC(C)C)C(=O)N[C@@H](CO)C(=O)N[C@@H](CO)C(=O)N[C@H](C(=O)N[C@@H](CC(N)=O)C(=O)N[C@H](C(=O)NCC(=O)N[C@@H](CO)C(=O)N[C@@H](CC(=O)O)C(=O)N[C@H](C(=O)N[C@@H](Cc1ccc(O)cc1)C(N)=O)[C@@H](C)O)C(C)C)[C@@H](C)O, Synthetic acylated analogue of human amylin; also called compound 1) | 12 ratio | 224 pM | 2700 pM |
| K([γGlu-C20 diacid])CNTATCATQRLANFLRHSSPNFGAIPSSTNVGSKTY-NH2 (disulfide 2-7; N-terminus assumed; SMILES CC[C@H](C)[C@H](NC(=O)[C@H](C)NC(=O)CNC(=O)[C@H](Cc1ccccc1)NC(=O)[C@H](CC(N)=O)NC(=O)[C@@H]1CCCN1C(=O)[C@H](CO)NC(=O)[C@H](CO)NC(=O)[C@H](Cc1c[nH]cn1)NC(=O)[C@H](CCCNC(=N)N)NC(=O)[C@H](CC(C)C)NC(=O)[C@H](Cc1ccccc1)NC(=O)[C@H](CC(N)=O)NC(=O)[C@H](C)NC(=O)[C@H](CC(C)C)NC(=O)[C@H](CCCNC(=N)N)NC(=O)[C@H](CCC(N)=O)NC(=O)[C@@H](NC(=O)[C@H](C)NC(=O)[C@@H]1CSSC[C@H](NC(=O)[C@@H](N)CCCCNC(=O)CC[C@H](NC(=O)CCCCCCCCCCCCCCCCCCC(=O)O)C(=O)O)C(=O)N[C@@H](CC(N)=O)C(=O)N[C@@H]([C@@H](C)O)C(=O)N[C@@H](C)C(=O)N[C@@H]([C@@H](C)O)C(=O)N1)[C@@H](C)O)C(=O)N1CCC[C@H]1C(=O)N[C@@H](CO)C(=O)N[C@@H](CO)C(=O)N[C@H](C(=O)N[C@@H](CC(N)=O)C(=O)N[C@H](C(=O)NCC(=O)N[C@@H](CO)C(=O)N[C@@H](CCCCN)C(=O)N[C@H](C(=O)N[C@@H](Cc1ccc(O)cc1)C(N)=O)[C@@H](C)O)C(C)C)[C@@H](C)O, Synthetic acylated analogue of human amylin; also called compound 35) [N^ε1-[(4S)-4-carboxy-4-(19-carboxynonadecanoylamino)butanoyl]-[Arg17,Pro21,Pro27,Lys35]-h-amylin] | 15 ratio | 364 pM | 5460 pM |
| K([γGlu-C20 diacid])CNTATCATQRLANFLRHSSPNFGAIPSSTNVGSETY-NH2 (disulfide 2-7; N-terminus assumed; SMILES CC[C@H](C)[C@H](NC(=O)[C@H](C)NC(=O)CNC(=O)[C@H](Cc1ccccc1)NC(=O)[C@H](CC(N)=O)NC(=O)[C@@H]1CCCN1C(=O)[C@H](CO)NC(=O)[C@H](CO)NC(=O)[C@H](Cc1c[nH]cn1)NC(=O)[C@H](CCCNC(=N)N)NC(=O)[C@H](CC(C)C)NC(=O)[C@H](Cc1ccccc1)NC(=O)[C@H](CC(N)=O)NC(=O)[C@H](C)NC(=O)[C@H](CC(C)C)NC(=O)[C@H](CCCNC(=N)N)NC(=O)[C@H](CCC(N)=O)NC(=O)[C@@H](NC(=O)[C@H](C)NC(=O)[C@@H]1CSSC[C@H](NC(=O)[C@@H](N)CCCCNC(=O)CC[C@H](NC(=O)CCCCCCCCCCCCCCCCCCC(=O)O)C(=O)O)C(=O)N[C@@H](CC(N)=O)C(=O)N[C@@H]([C@@H](C)O)C(=O)N[C@@H](C)C(=O)N[C@@H]([C@@H](C)O)C(=O)N1)[C@@H](C)O)C(=O)N1CCC[C@H]1C(=O)N[C@@H](CO)C(=O)N[C@@H](CO)C(=O)N[C@H](C(=O)N[C@@H](CC(N)=O)C(=O)N[C@H](C(=O)NCC(=O)N[C@@H](CO)C(=O)N[C@@H](CCC(=O)O)C(=O)N[C@H](C(=O)N[C@@H](Cc1ccc(O)cc1)C(N)=O)[C@@H](C)O)C(C)C)[C@@H](C)O, Synthetic acylated analogue of human amylin; also called compound 27) [N^ε1-[(4S)-4-carboxy-4-(19-carboxynonadecanoylamino)butanoyl]-[Arg17,Pro21,Pro27,Glu35]-h-amylin] | 22.6 ratio | 133 pM | 3000 pM |
